Reference: paper PMC9963277 (Proceedings of the National Academy of Sciences of the …, 2023)

B1: E. coli SspB (natural protein)
chain: MDLSQLTPRRPYLLRAFYEWLLDNQLTPHLVVDVTLPGVQVPMEYARDGQIVLNIAPRAVGNLELANDEVRFNARFGGIPRQVSVPLAAVLAIYARENGAGTMFEPEAAYDEDTSIMNDEEASADNETVMSVIDGDKPDHDDDTHPDDEPPQPPRGGRPALRVVK
B2: E. coli ClpX (containing a neutral K408E mutation) (enzyme)
chain: not shown
B3: E. coli ClpP (enzyme)
chain: not shown

Experiments:
[1] = biological target: B2; assay: cryo-EM structure
cryo-EM structure = biological target: the molecule itself; assay: cryo-EM structure

binding result [1] | Binder | binding result (cryo-EM structure)
binds | B1 | 
 | B2 | binds
binds | B3 | binds
